In a protein production outcome set (Wang et al. 2014) one finds protein production data, which are given here for 13 sequences.

This series is described as follows: label from the status in PepcDB records.
On to “MVLSVVVVGKPRCRSIAVAARERLHRYGEYPMSSNNASGKVVSVDEQAFENAGEQAADEDGFPVVDETPEFEAAVEQETQAKVDANHPDGIADTSEDRIHGVTLEQEERIRAREAELERISAQAELGTQDGREQRTRDIAAKRSAVRRAEFQTRAASVDPMADPERDDPRAELTQEQLAAVNKQSMRLAEKLDGWSRAAIGRRLGEAVVGGKDVTSAVVGVFEELQTAPGTVIPIGKLEDVNRKEVSIEGTVTRLWKPSSAAISQVGLIEDESGKTKFTSWVASEQPWIEEGEHVRIHGAAKNWYNGRVSVALTGWSTVHFPERGRWWEALEHHHHHH”, for which the protein production entry is listed as “failed”.
The value for “MVLVTSVRDYINRMLQDISGMKVLILDSETVSNVSIVYSQSELLQKEVFLVEMIDSISVSKESMSHLKAVYFIRPTSDNIQKLRYQLANPRFGEYHLFFSNLLKDTQIHILADSDEQEVVQQVQEYYADFVSGDPYHFTLNMASNHLYMIPAVVDPSGLQRFSDRVVDGIAAVFLALKRRPVIRYQRTSDTAKRIAHETAKLMYQHESALFDFRRTESSPLLLVIDRRDDPVTPLLNQWTYQAMVHELIGLQDNKVDLKSIGSLPKDQQVEVVLSSEQDAFFKSNMYENFGDIGMNIKRMVDDFQQVAKSNQNIQTVEDMARFVDNYPEYKKMQGNVSKHVTLVTEMSKLVEARKLMTVSQTEQDLACNGGQGAAYEAVTDLLNNESVSDIDRLRLVMLYALRYEKENPVQLMQLFNKLASRSPKYKPGLVQFLLKQAGVEKRTGDLFGNRDLLNIARNMARGLKGVENVYTQHQPLLFQTMESITRGRLRDVDYPFVGDHFQQGRPQEVVIFMVGGTTYEESRSVALQNATNSGVRFILGGTAVLNSKRFLKDLEEAQRISRSGSHMV” was “failed”; that for “MVLYIILAIIVIILIAVGVLFYLRSNKRQIIEKAIERKNEIETLPFDQNLAQLSKLNLKGETKTKYDAMKKDNVESTNKYLAPVEEKIHNAEALLDKFSFNASQSEIDDANELMDSYEQSYQQQLEDVNEIIALYKDNDELYDKCKVDYREMKRDVLANRHQFGEAASLLETEIEKFEPRLEQYEVLKADGNYVQAHNHIAALNEQMKQLRSYMEEIPELIRETQKELPGQFQDLKYGCRDLKVEGYDLDHVKVDSTLQSLKTELSFVEPLISRLELEEANDKLANINDKLDDMYDLIEHEVKAKNDVEETKDIITDNLFKAKDMNYTLQTEIEYVRENYYINESDAQSVRQFENEIQSLISVYDDILKEMSKSAVRYSEVQDNLQYLEDHVTVINDKQEKLQNHLIQLREDEAEAEDNLLRVQSKKEEVYRRLLASNLTSVPERFIIMKNEIDHEVRDVNEQFSERPIHVKQLKDKVSKIVIQMNTFEDEANDVLVNAVYAEKLIQYGNRYRKDYSNVDKSLNEAERLFKNNRYKRAIEIAEQVLESVEPGVTKHIEEEVIKQ” was “failed”; that for “MVMIWYKALFSFNGRLNRQGFWIGFGINFIFLFIIANFGPKETAFSLTMVLPLLLASYSCVAVIIKRLHDRNRSARAILMMFIPLICYGVSLATQGTMAWLLGVMMPMFIGTMLLLEWGVFKSYPQANQYGEKGETFCFT” was “failed”.
On to “MVNFDEEVFRAYYEHKIKSFIKEELSNNLIKGNIFEFDIEKFLMHFPDACEVNDLIIERPKEIEEIILDIFKEAYVELFGEDKELEKIQIAFKNPKGCEKLIEEISAEDINKLVKFEGNILQAGKVNALLKKAVYYCNKRIKDENGGFLCKYTYTPCDGRVEIEIDDYFSEGEFIKDMLSPREVKKILENKKVWDKLVEKGKIPRCVDLKENDEVFKENLKEIKFILDEYDSIYVNIQEMEIQQPIDLMKNPEEPARSIRVFLENTPGIYAGRVNVIGRVMKREYRHNIPIYKIYIKSNYIKISESYNKIEVKDILRNEELIETLNELGRKKNIIDILSNYLISQIKGYELVKKAIFLQQIKGAFKFLPDGTPLRRDSHILLITDPGIGKSTMLRRIARLFPQNAYASVTTATGGGLTAIVTREATEIGDGWVVKPGVFVRANEGTACIDELTVDKNVMKYILEAMESQTIHVNKGGINVKLPARCAVLAACNPKRGRFDRNLTVIEQIDIPAPLLSRFDLIFPLMDKPNRKSDEEIAEHILNTHIETATKDYKILGAIDIDGITVDEKLLKYYIIYARSCAYIEENQDLYLGEFDETKLIMPYLTDKAKKMIKKYYLEMRKLGEGDNPIPITARQLEAIIRIAEMHAKARLSDKVEDVDAEVAISIIDDCLKQVAYDPETGTLDLDKIAGTPKSRRDKMDAVLNIIREIVSLRDDGLAPEEEIYEKAMAIGLSEKDVNDALEYLKKAGDIYNPRYGFWGLL”, for which the protein production result is listed as “failed”.
In the case of “MVNILSLFTLAALWGGSFLFVRIAANPLGPAVLIEVRVAFAALTLLVVSFFLKKSLRFMSNIKHFLILGLFNSALPFLLFAYSAQVLNVSTLAVLNSTAPIWGAVIGAIWTRTRLSKDVIFGLILGMIGVSVLVGWEAINIGDEAIIPIITALIGAFSYGVATNYAKNAPSVEPFNNAHGSMWASVLLVLPLVPFMPVREEVTSDIIAAVFALGAVCTGLAYLLYFRLIKELGASSALTVTFIIPVFGILWGYLFLGETVGVNAIIGTILVVIGTMFVTGFASKFMSKKCV”, the protein production entry is “failed”.
The value for “MVNLDAEIYEHLNKQIKINELRYLSSGDDSDTFLCNEQYVVKVPKRDSVRISQKREFELYRFLENCKLSYQIPAVVYQSDRFNIMKYIKGERITYEQYHKLSEKEKDALAYDEATFLKELHSIEIDCSVSLFSDALVNKKDKFLQDKKLLISILEKEQLLTDEMLEHIETIYENILNNAVLFKYTPCLVHNDFSANNMIFRNNRLFGVIDFGDFNVGDPDNDFLCLLDCSTDDFGKEFGRKVLKYYQHKAPEVAERKAELNDVYWSIDQIIYGYERKDREMLIKGVSELLQTQAEMFIF” was “not failed”; that for “MVNPAQARQLDKIRKVNYASNTFELIAKEWLQMKDWAEITKTRRLDMLERVVFPAIGKLPVREITPHHILKILQETAKRGAPTVAAEARRTISSVFELAVATLRADSDPVWPVRKALPALEHHHHHH” was “failed”.
With “MVPEFIILGAAILLSICDLFFKLNHRYVALGAIAAIVLAIVSLITLYSEPAGDILNGSFVLDGFSKGFKTLLLGASALILCTAMSDDKKNPIEDKGEYYYLFLMALLGAMFMASSVDFITLFVGLELLSLSSYILVGIRKKSRASNEAAMKYVISGGIGTAITLFGMSYLYGITGSTNIVDMQKVLTGELASGIQLLLALAFLLLLVGLSFKIATVPFHMWAPDVYEGAATPVTAFLGTISKIAGFLLIIRLFLMIFASVLIQGDMQSLYGHMSIYIAVLASITMIVGNVVALKQYNIKRLFAYSGIAHAGYLLVPLVALSPFTMDSMWFYMLAYMLMNIGAFAIIHGLILQNNEENITIFTGLYKRSPFTAIMMTIFILSLAGIPGTAGFIGKINIFLGALHVEPAHYVLASIMMGTTVVSFVYYFRILQQMFFRTGETEERIRLPLNIKVVMSLCAISIVILGIMPMIGYNFFYEYFPLMKDFFFLGNVVQ”, the protein production entry is recorded as “not failed”.
Regarding “MVPEITIDVNVFPSPRKSSSNTVEINLKRESDDKCDDAPLFQITQLILKDVVNFDPHKTSPLLETIFPDSISGTRLCVEMALASERVPAPFDMYLHVTVRFVEESTSSSPLENKTCAICLEDMSQDVHDYQEMPNCPHVFHNDCIYKWLGHSNLCPLCRTVLEDEDDDDYPYYS”, the protein production entry is on record as “failed”.
As for “MVPSGVRTGRWVAAARAAQRRPRVDSLGQPPSPESASTRAALYVHWPYCEKRCSYCNFNKYIPRGVEEGTVRNCLVTEARTLLRLSGVQRVESVFFGGGTPSLASPHTVAAVLEAVAQEVYLPADSEVTLEANPTSAPGPRLAAFGAAGVNRLSIGLQSLDDAELQLLGRTHSASDALRTLAEARLLFPGRVSVDLMLGLPAQKVEPWLQQLQKLLYHCDDHLSLYQLTLERGTSLFAQVQQGTLPAPDPDLAAEMYQEGRTVLRDAGFRQYEVSNFARNGALSTHNWTYWQCGQYLGIGPGAHGRFVPQGTGGHTREARIQTLEPDNWMKEVTLFGHGTRKCVRLGKLELLEEVLAMGLRTDVGVTHQHWQQFEPQLTLWDVFGASKEVEELLAQGLLLLDYRGLRCSWEGLAVLDSLLLTLLPQLQEAWQHRPSSPVSGG”, the protein production entry was “failed”.
In the case of “MVPTPKPVVDRMLELADVDETDVLYDLGSGDGRIVIRAARTHGARGVGIEIDPDLVKKARKNAKEAGVADLVEFRQGDLFEADISEATVVTLYLLPSVNQKLRPILFEQLSPGTPVVSHDFDMGRWAPDRTVDLEGDTVYRWTIPLEHHHHHH”, the protein production entry was “failed”.
In the case of “MVQQSEVRQMKHSVSTLNQEMTQLNQETVKITQQNRLNAKSSSGVYLLPGAKTPARLESQIGTLRMSLVNITPDADGTTLTLRIQGESNDPLPAFSGTVEYGQIQGTIDNFQEINVQNQLINAPASVLAPSDVDIPLQLKGISVDQLGFVRIHDIQPVMQLEHHHHHH”, the protein production entry was “not failed”.
